Residue numbers refer to the chain shown, from its start. Values belong to the binder of their own block, whether it stands above or below them.
Columns and labels:
human PTHrP (1-34) [1] = target: T1, human PTHrP (1-34) (human); experiment: solid phase RIA of hybridoma culture supernatant
T1 construct: Synthetic peptide (Peninsula; Peptide Research Institute), coated on ELISA plates at 1 ug/ml; added at 1 ng/ml final in the cAMP assay; also called parathyroid hormone related peptide (1-34)
Source text: The hybridomas thus obtained was suspended into RPMI-1640 medium containing 15% FCS supplemented with OPI-supplement (Sigma), followed by unification of the hybridomas by limiting dilution method.

human PTHrP (1-34) [2] = target: T1, human PTHrP (1-34); experiment: ELISA, plate coated with human PTHrP (1-34)
Experimental: An ELISA plate for determining antigen-binding ability was prepared as follows. Each well of a 96-well ELISA plate (Maxisorp, NUNC) was coated with 100 μl of a coating buffer containing 1 μg/ml of human PTHrP (1-34) and then blocked with 200 μl of a dilution buffer. Subsequently, each well was added with each of the serial dilutions of the COS-7 cell culture supernatant in which each of the hybrid antibodies and humanized antibodies was expressed, or added with each of the serial dilutions of each of the hybrid antibodies and humanized antibodies in a purified form. The plate was incubated at room temperature and washed with PBS-Tween 20. Subsequently, each well was added with 100 μl of alkaline phosphatase-conjugated goat anti-human IgG antibody (TAGO). The plate was incubated at room temperature and washed with PBS-Tween 20. Subsequently, each well was added with 1 mg/ml of a substrate solution (“Sigma 104”, p-nitrophenylphosphoric acid, SIGMA). The solution was measured on its absorbance at 405 nm using Microplate Reader (Bio Rad).

B1: mouse monoclonal antibody #23-57-137-1 against human PTHrP (1-34) (antibody, V domains shown)
VH: EVQLVESGGDLVKPGGSLKLSCAASGFTFSSYGMSWIRQTPDKRLEWVATISSGGSYTYYPDSVKGRFTISRDNAKNTLYLQMSSLKSEDTAMFYCARQTTMTYFAYWGQGTLVTVSA
VL: QLVLTQSSSASFSLGASAKLTCTLSSQHSTYTIEWYQQQPLKPPKYVMDLKQDGSHSTGDGIPDRFSGSSSGADRYLSISNIQPEDEAMYICGVGDTIKEQFVYVFGGGTKVTVLG
notes: Mouse antibody from hybridoma culture supernatant; mouse lambda L-chain; H-chain cloned with an MHC-G1 primer
binding result (human PTHrP (1-34) [1]): binds

B2: chimeric #23-57-137-1 antibody with L-chain kappa chain C-region (antibody, V domains shown)
VH: B1 VH
VL: B1 VL
notes: Mouse V-regions joined to human H-chain C-region Cgamma1 and human kappa C-region (from plasmid HEF-PM1k-gk); expressed in COS-7 cells; also called chimeric antibody; MBC1HcDNA/pCOS1 and MBC1L(κ)/neo
binding result (human PTHrP (1-34) [2]): binds

B3: chimeric #23-57-137-1 antibody with L-chain lambda chain C-region (antibody, V domains shown)
VH: B1 VH
VL: B1 VL
notes: Mouse V-regions joined to human H-chain C-region Cgamma1 and human lambda C-region (isotype Mcg+Ke+Oz-, EMBL X57819); expressed in COS-7 cells; also called chimeric antibody; MBC1HcDNA/pCOS1 and MBC1L(λ)/neo
binding result (human PTHrP (1-34) [2]): binds

B4: humanized #23-57-137-1 antibody having L-chain version "s" (antibody, V domains shown)
VH: QVQLVESGGGVVQPGRSLRLSCAASGFTFSSYGMSWVRQAPGKGLEWVATISSGGSYTYYPDSVKGRFTISRDNSKNTLYLQMNSLRAEDTAVYYCARQTTMTYFAYWGQGTLVTVSS
VL: QLVLTQSPSASASLGASVKLTCTLSSQHSTYTIEWYQQQPEKGPKYVMDLKQDGSHSTGDGIPDRFSGSSSGAERYLTISSLQSEDEADYICGVGDTIKEQFVYVFGGGTKLTVLG
notes: Humanized H-chain version a with human Cgamma1; human lambda C-region; COS-7 expressed; also called hMBC1HcDNA/pCOS1 and hMBC1Lsλ/pCOS1
binding result (human PTHrP (1-34) [2]): binds

B5: antibody having both a humanized H-chain version "a" and a chimeric L-chain (antibody, V domains shown)
VH: B4 VH
VL: B1 VL
notes: Human Cgamma1 H-chain C-region
binding result (human PTHrP (1-34) [2]): binds

B6: mouse FR1,2/human FR3,4 hybrid antibody, L-chain m/hMBC1Laλ (antibody, V domains shown)
VH: B4 VH
VL: QLVLTQSSSASFSLGASAKLTCTLSSQHSTYTIEWYQQQPLKPPKYVMDLKQDGSHSTGDGIPDRFSGSSSGAERYLTISSLQSEDEADYYCGVGDTIKEQFVYVFGGGTKLTVL
notes: H-chain from hMBC1HcDNA/pCOS1 (humanized version a, human Cgamma1); human lambda C-region
binding result (human PTHrP (1-34) [2]): binds

B7: humanized #23-57-137-1 antibody having L-chain version "o" (antibody, V domains shown)
VH: B4 VH
VL: B4 VL with K45R, I91Y
notes: Humanized H-chain version a with human Cgamma1; human lambda C-region; COS-7 expressed; also called hMBC1HcDNA/pCOS1 and hMBC1Loλ/pCOS1
binding result (human PTHrP (1-34) [2]): binds

B8: humanized #23-57-137-1 antibody having L-chain version "m" (antibody, V domains shown)
VH: B4 VH
VL: B4 VL with K45R, V47L, I91Y
notes: Humanized H-chain version a with human Cgamma1; human lambda C-region; COS-7 expressed; also called hMBC1HcDNA/pCOS1 and hMBC1Lmλ/pCOS1
binding result (human PTHrP (1-34) [2]): binds

B9: human FR1/mouse FR2,3,4 hybrid antibody, L-chain hmmMBC1L(λ) (antibody, V domains shown)
VH: B4 VH
VL: QLVLTQSPSASASLGASVKLTCTLSSQHSTYTIEWYQQQPLKPPKYVMDLKQDGSHSTGDGIPDRFSGSSSGADRYLSISNIQPEDEAMYICGVGDTIKEQFVYVFGGGTKVTVL
notes: H-chain from hMBC1HcDNA/pCOS1 (humanized version a, human Cgamma1); human lambda C-region; also called FR1/FR2 hybrid antibody
binding result (human PTHrP (1-34) [2]): binds

B10: humanized #23-57-137-1 antibody having L-chain version "t" (antibody, V domains shown)
VH: B4 VH
VL: B4 VL with K45R
notes: Humanized H-chain version a with human Cgamma1; human lambda C-region; COS-7 expressed; also called hMBC1HcDNA/pCOS1 and hMBC1Ltλ/pCOS1
binding result (human PTHrP (1-34) [2]): binds

Now from value to binder:

binding result (human PTHrP (1-34) [2]): binds
B11: humanized #23-57-137-1 antibody having L-chain version "r" (antibody, V domains shown)
VH: B4 VH
VL: B4 VL with K45R, V47L
notes: Humanized H-chain version a with human Cgamma1; human lambda C-region; COS-7 expressed (also CHO); also called hMBC1HcDNA/pCOS1 and hMBC1Lrλ/pCOS1

binding result (human PTHrP (1-34) [2]): binds
B12: humanized #23-57-137-1 antibody having L-chain version "q" (antibody, V domains shown)
VH: B4 VH
VL: B4 VL with V47L
notes: Humanized H-chain version a with human Cgamma1; human lambda C-region; COS-7 expressed (also CHO); also called hMBC1HcDNA/pCOS1 and hMBC1Lqλ/pCOS1

binding result (human PTHrP (1-34) [2]): binds
B13: humanized #23-57-137-1 antibody having L-chain version "l" (antibody, V domains shown)
VH: B4 VH
VL: B4 VL with I91Y
notes: Humanized H-chain version a with human Cgamma1; human lambda C-region; COS-7 expressed; also called hMBC1HcDNA/pCOS1 and hMBC1Llλ/pCOS1

binding result (human PTHrP (1-34) [2]): binds
B14: humanized #23-57-137-1 antibody having L-chain version "j" (antibody, V domains shown)
VH: B4 VH
VL: B4 VL with V47L, I91Y
notes: Humanized H-chain version a with human Cgamma1; human lambda C-region; COS-7 expressed; also called hMBC1HcDNA/pCOS1 and hMBC1Ljλ/pCOS1

Reference: patent US20030049211A1 (published 2003)
